Experiments:
[1] = biological target: F protein on live RSV virus (strain not stated) (respiratory syncytial virus (RSV)); assay: cell-based or functional assay
[2] = biological target: T1, RSV G protein of group A strain (Ga protein) (respiratory syncytial virus (RSV), …, UniProt P03423 1-298); assay: Biacore, antibody on chip, recombinant Ga in flow
T1 construct: also called RSV-Ga; RSV-GA2 protein
T1 sequence: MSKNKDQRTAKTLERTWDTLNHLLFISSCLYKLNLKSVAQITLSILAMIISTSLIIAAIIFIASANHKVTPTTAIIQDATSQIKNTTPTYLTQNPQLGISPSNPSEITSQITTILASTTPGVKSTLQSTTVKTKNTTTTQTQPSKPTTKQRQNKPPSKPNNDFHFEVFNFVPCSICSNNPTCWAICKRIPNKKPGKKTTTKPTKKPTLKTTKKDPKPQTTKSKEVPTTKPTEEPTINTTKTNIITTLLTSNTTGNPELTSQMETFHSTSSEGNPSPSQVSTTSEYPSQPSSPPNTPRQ

[3] = biological target: T2, 12-mer Ga derived peptide HFEVFNFVPCSI; assay: array of overlapping 12-mer peptides, 1 ug/ml antibody, chemiluminescence
T2 construct: also called (169) HFEVFNFVPCSI (176)
T2 peptide: HFEVFNFVPCSI

Synagis® (palivizumab) (antibody)
IC50, plaque assay for neutralization of RSV on HEp2 cells with rabbit complement [1]: 0.3 µg/mL | affinity according to the plaque neutralization assay [1]: 2 nM

B1: 10C6 (antibody, V domains shown)
VH: QVQLVESGGGVVQPGRSLRLSCEASGFTFSGYAMHWVRQAPAKGLEWVAVISFDGSNNYYADSVKGRFTISRDNSKNMLFLQMNSLRAEDTAVYYCVRPDVIAVAGTALSNPFDLWGLGTMVTVSS
VL: EIVMTQSPATLSVSPGERALSCRASQSVRSNLVWYQQKPGQAPRLLIFGASTRATGIPARFSGSGSGTEFTLTISSLQSEDFALYFCQQNNNWPPTFGQGTRLEIK
Kd [2]: 0.055 nM

B2: murine monoclonal antibody 131-2G (antibody, V domains shown)
VH: EVQLQQSGPELVKPGTSVKISCKASGYSFTGFTMNWVKQSHGKNLEWFGLINPFNGNTGYNQKFKGKATLTVDKSSSTAFMELLSLTSEDSAVYYCARSGKSYDYEAWFTYWGQGTLVTVSA
VL: DIVMTQTTLSLPVSLGNQASISCRSSQTIVHTNGNTYLEWYLQKPGQSPKLLIYKVSNRFSGVPDRFSGSGSGTDFILNISRVEAEDLGVYYCFQGSHVPFTFGSGTKLEIKR
notes: Only variable regions are printed
binding result [3]: binds

— US20090130120A1 (published 2009)
